Residue numbers refer to the chain shown, from its start. Like-named read-outs stand apart in the source and are kept apart here.

Experiment [1] has as its system matrix-associated (LTBP1/LTBP3) and cell-associated (GARP/LRRC33) proTGFβ1 complexes. Briefly: Octet: average KD and fold bias, matrix- vs cell-associated complexes. The class given is binding, human. The following applies: for Kd: average KD of (E) and (F), cell-associated complexes, read-out: (G) Cell AVRG; for (H) G/D (fold bias): ratio of average KD cell-associated / matrix-associated. An outline of the steps: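 Monoclonal antibodies were measured for binding affinity, expressed as KD, to cell-surface or cell-associated proTGFβ1 complexes (GARP and LRRC33). The KD values for the two complexes were averaged to give one value for cell-associated affinity. That average was then divided by the matrix-associated average to express fold bias between the complex types.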

The next experiment deals with T1, hLTBP3-proTGFβ1 (Homo sapiens, UniProt P01137).
T1 construct: made in house; host or cells: Expi293F cells, transient co-transfection
T1 sequence (P01137 30-390): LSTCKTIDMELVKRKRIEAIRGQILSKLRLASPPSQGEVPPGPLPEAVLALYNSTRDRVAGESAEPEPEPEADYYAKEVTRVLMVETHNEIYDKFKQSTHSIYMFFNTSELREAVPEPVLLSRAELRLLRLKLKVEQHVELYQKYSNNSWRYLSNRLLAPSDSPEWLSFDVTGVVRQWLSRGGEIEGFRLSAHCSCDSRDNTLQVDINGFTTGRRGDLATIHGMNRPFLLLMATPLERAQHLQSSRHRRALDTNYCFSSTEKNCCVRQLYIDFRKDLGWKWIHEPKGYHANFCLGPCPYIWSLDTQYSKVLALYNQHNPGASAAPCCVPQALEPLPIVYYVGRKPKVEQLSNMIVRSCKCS
T1 sequence (Q9NS15 866-1039 partner limits assumed): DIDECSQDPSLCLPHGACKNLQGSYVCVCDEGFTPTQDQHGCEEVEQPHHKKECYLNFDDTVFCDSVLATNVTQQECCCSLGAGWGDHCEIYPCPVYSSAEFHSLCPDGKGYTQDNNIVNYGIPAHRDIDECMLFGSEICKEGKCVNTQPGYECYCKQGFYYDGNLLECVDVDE
Kind of experiment: MSD-SET solution equilibrium titration binding. To be noted: MSD-SET at equilibrium, hIgG4, human complex; in M. An excerpt:
(§1) Solution Equilibrium Titration (SET): The SET is an assay whereby binding between two molecules (such as an antigen and an antibody that binds the antigen) can be measured at equilibrium in a solution. For example, Meso-Scale Discovery (“MSD”)-based SET, or MSD-SET, is a useful mode of determining dissociation constants for particularly high-affinity protein-protein interactions at equilibrium, such as picomolar-affinity antibodies binding to their antigens (see, for example: Ducata et al. (2015) J Biomolecular Screening 20(10): 1256-1267). The SET-based assays are particularly useful for determining KD values of antibodies with sub-nanomolar (e.g., picomolar) affinities.
(§2) In view of this, it is contemplated that assays that measure binding affinities of such antibodies at equilibrium may more accurately represent the mode of target engagement in vivo. Thus, MSD-SET-based binding assays (or other suitable assays) may be performed, as exemplified in Table 9 below.
(§3) Solution equilibrium titration (“SET”) is an assay whereby binding between two molecules (such as an antigen and an antibody that binds the antigen) can be measured at equilibrium in a solution. For example, Meso-Scale Discovery (“MSD”)-based SET, or MSD-SET, is a useful mode of determining dissociation constants for particularly high-affinity protein-protein interactions at equilibrium (see, for example: Ducata et al. (2015) J Biomolecular Screening 20(10): 1256-1267). The SET-based assays are particularly useful for determining KD values of antibodies with sub-nanomolar (e.g., picomolar) affinities.
(§4) For solution equilibrium titration-based binding assays, protein complexes that comprise one of the presenting molecules such as those shown above may be employed as antigen (presenting molecule-TGFβ1 complex, or an LLC). Test antibodies are allowed to form antigen-antibody complex in solution. Antigen-antibody reaction mixtures are incubated to allow an equilibrium to be reached; the amount of the antigen-antibody complex present in the assay reactions can be measured by suitable means well known in the art. As compared to BLI-based assays, SET-based assays are less affected by on/off rates of the antigen-antibody complex, allowing sensitive detection of very high affinity interactions.

In the next experiment the target is T2, hLRRC33-proTGFβ1 (Homo sapiens, UniProt P01137).
T2 construct: made in house
T2 sequence (P01137 30-390): as the sequence (P01137 30-390) above
T2 sequence (Q86YC3 19-650 partner limits assumed): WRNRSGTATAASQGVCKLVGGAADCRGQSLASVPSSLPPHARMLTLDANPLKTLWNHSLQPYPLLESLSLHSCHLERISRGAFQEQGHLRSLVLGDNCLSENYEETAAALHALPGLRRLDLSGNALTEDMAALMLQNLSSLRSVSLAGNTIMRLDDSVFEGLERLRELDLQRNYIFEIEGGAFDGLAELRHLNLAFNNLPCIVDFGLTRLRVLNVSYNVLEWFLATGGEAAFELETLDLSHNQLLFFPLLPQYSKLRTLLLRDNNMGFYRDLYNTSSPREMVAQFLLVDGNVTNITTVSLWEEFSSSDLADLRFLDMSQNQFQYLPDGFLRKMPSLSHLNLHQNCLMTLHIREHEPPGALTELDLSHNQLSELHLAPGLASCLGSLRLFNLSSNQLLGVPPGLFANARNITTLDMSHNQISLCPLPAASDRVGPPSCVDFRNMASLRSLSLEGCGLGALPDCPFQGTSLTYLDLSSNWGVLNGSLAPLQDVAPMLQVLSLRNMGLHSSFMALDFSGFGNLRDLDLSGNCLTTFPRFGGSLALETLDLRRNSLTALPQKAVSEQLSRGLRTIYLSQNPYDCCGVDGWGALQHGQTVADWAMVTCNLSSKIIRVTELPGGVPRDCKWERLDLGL
Kind of experiment: MSD-SET solution equilibrium titration binding. The following applies: MSD-SET at equilibrium, hIgG4, human complex; in M.
Source text: as §1, §2, §3, §4

The target in the next experiment is T3, hLTBP1-proTGFβ1 (Homo sapiens, UniProt P01137).
T3 construct: made in house; host or cells: Expi293F cells, transient co-transfection
T3 sequence (P01137 30-390): as the sequence (P01137 30-390) above
T3 sequence (Q14766 873-1507 partner): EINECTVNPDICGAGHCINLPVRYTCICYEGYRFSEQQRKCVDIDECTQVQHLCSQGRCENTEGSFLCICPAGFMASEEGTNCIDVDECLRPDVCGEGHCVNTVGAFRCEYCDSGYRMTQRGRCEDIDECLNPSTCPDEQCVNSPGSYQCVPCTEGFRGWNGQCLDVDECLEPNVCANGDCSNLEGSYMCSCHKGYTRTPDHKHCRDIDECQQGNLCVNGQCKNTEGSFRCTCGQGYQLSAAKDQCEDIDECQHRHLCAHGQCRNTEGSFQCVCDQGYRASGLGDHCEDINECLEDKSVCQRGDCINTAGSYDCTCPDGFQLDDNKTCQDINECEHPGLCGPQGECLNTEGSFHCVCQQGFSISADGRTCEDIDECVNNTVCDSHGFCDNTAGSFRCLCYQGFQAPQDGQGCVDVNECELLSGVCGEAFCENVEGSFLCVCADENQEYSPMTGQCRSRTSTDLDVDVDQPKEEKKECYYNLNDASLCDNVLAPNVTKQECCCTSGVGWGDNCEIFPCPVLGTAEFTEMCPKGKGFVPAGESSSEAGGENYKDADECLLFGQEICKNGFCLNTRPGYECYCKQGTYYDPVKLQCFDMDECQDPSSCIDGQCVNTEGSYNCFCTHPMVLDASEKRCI
Briefly: MSD-SET solution equilibrium titration binding. The following applies: MSD-SET at equilibrium, hIgG4, human complex; in M.
Source text: as §1, §2, §3, §4

A further experiment has as its target T4, hGARP-proTGFβ1 (Homo sapiens, UniProt P01137).
T4 construct: made in house
Briefly: MSD-SET solution equilibrium titration binding. To be noted: MSD-SET at equilibrium, hIgG4, human complex; in M.
Source text: as §1, §2, §3, §4

For experiment [2], the system named is matrix-associated (LTBP1/LTBP3) and cell-associated (GARP/LRRC33) proTGFβ1 complexes. Kind of experiment: Octet: average KD and fold bias, matrix- vs cell-associated complexes. To be noted: average KD of (B) and (C), read-out: (D) ECM AVRG. The format is binding, human. For orientation: In BLI a coated tip is dipped into the sample, and binding shifts an interference pattern.

T4 sequence (P01137 30-390): as the sequence (P01137 30-390) above
T4 sequence (Q14392 20-627 partner limits assumed): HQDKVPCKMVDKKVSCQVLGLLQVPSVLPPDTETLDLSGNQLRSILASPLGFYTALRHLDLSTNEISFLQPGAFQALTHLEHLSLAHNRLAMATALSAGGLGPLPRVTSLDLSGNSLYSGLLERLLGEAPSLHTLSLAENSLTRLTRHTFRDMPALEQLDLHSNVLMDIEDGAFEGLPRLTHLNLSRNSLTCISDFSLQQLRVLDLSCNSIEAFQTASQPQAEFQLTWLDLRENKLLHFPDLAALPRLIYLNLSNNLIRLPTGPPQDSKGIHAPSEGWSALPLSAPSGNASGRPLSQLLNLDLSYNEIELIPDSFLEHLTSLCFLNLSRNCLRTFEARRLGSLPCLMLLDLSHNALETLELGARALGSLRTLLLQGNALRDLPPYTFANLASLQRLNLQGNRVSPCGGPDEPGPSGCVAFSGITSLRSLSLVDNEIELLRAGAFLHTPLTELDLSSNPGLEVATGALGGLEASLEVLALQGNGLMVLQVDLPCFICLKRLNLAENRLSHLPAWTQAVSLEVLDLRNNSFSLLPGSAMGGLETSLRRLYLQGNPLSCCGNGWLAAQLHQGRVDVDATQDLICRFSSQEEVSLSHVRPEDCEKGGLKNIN

B1: Ab12: monoclonal antibody; VH SEQ ID NO: 237, VL SEQ ID NO: 241 (antibody, V domains shown)
VH: QVQLVESGGGVVQPGRSLRLSCAASGFTFSDYAMVWVRQAPGKGLEWVSAISGSGFTTYYADSVKGRFTISRDNSKNTLYLQMNSLRAEDTAVYYCARVSSGHWDFDYWGQGTLVTVSS
VL: DIQLTQSPSSLSASVGDRVTITCRASQSISSYLNWYQQKPGKAPKLLIYAASNLQSGVPSRFSGSGSGTDFTLTISSLQPEDFATYYCQQTYTVPLTFGGGTKVEIK
As to B1, in experiment [1], the Kd came out at 3.89 nM and the “(H) G/D (fold bias)” value is 22.897 fold. In addition, the “(C) hLTBP3, Matrix-associated proTGFβ1 KD” value in the experiment with hLTBP3-proTGFβ1 is 6.60E−10. Also, the “(F) hLRRC33, Cell-associated proTGFβ1 KD” value in the experiment with hLRRC33-proTGFβ1 stood at 3.20E−09. The “(B) hLTBP1, Matrix-associated proTGFβ1 KD” value in the experiment with hLTBP1-proTGFβ1 stood at 7.80E−10. The “(E) hGARP, Cell-associated proTGFβ1 KD” value in the experiment with hGARP-proTGFβ1 was 1.70E−09. Further, the Kd in experiment [2] amounted to 0.17 nM.

B2: Ab19: monoclonal antibody; VH SEQ ID NO: 250, VL SEQ ID NO: 241 (antibody, V domains shown)
VH: B1 VH with D31S, Y32F, V35T, F56A, T57A, Y60F, Y108E
VL: B1 VL
As to B2, in experiment [1], the Kd was found to be 5.95 nM and the “(H) G/D (fold bias)” value is listed as 34.47 fold. For the same molecule, the “(C) hLTBP3, Matrix-associated proTGFβ1 KD” value with hLTBP3-proTGFβ1 worked out at 2.70E−09. For the same molecule, in the experiment with hLRRC33-proTGFβ1, the “(F) hLRRC33, Cell-associated proTGFβ1 KD” value is reported as 5.70E−09. Also, the “(B) hLTBP1, Matrix-associated proTGFβ1 KD” value with hLTBP1-proTGFβ1 came to 2.10E−09. The “(E) hGARP, Cell-associated proTGFβ1 KD” value with hGARP-proTGFβ1 is reported as 3.80E−09. Moreover, the Kd in experiment [2] amounted to 0.172 nM.

The values above are taken from patent US11130803B2, “Isoform-selective TGFβ1 inhibitors and use thereof” (Scholar Rock, Inc., priority 2018, dated 2021).
